Assay [1] relates to mice with dorsal over-hemisection injury. Description: gfap::sNogoR310 transgenic mice, dorsal over-hemisection: behavioral tests. Type of assay: in vivo, mouse. The source says:
The Basso-Beattie-Bresnahan (BBB) locomotor rating scale (Basso et al., Neurotrauma 13:343-359 (1996)), the inclined plane test and the inclined grid walking test (Li and Strittmatter, J Neurosci. 23:4219-27 (2003)) were monitored in rats and mice after injury. For the inclined plane test, we measured the maximal angle to which a 50 cm×60 cm board could be angled for 5 sec without the mouse sliding off. For inclined grid walking, the mice were trained to climb a wire grid (35 cm long with 2.54 cm squares) at a slope of 45 degrees. The number of instances in which the hindpaw dropped below the grid plane was scored for each excursion from bottom to top. For the rat behavioral testing, BBB locomotor scale, grid walking and footprint analysis were performed. For grid walking, the rats were trained to walk on a wire grid (70 cm long with 2.54 an squares), and the number of instances in which the hindpaw dropped below the grid plane was counted. For footprint analysis, the walking patterns of rat hindpaws were recorded with ink during a continuous locomotion across a 90 cm runway, and stride length on each side and stride width were calculated (Metz et al., Brain Res. 883:165-177 (2000)). All of these behavioral tests were performed by at least two individuals. Throughout the surgery, behavioral testing and histologic analysis, researchers were blind to the identity of the compound in the minipump.
We deeply anesthetized adult female heterozygous transgenic or littermate WT mice (10-16 weeks of age) and performed a complete laminectomy, fully exposing the dorsal part of spinal cord at T6 and T7 levels. We performed a dorsal over-hemisection at T6 with a 30-gauge needle and a pair of microscissors to completely sever the dorsal and dorsolateral corticospinal tracts (CSTs). We passed a marked needle across the dorsal part of the spinal cord several times to assure that the lesion was at a depth of 1.0 mm. We sutured the muscle layers over the laminectomies and closed the skin on the back with surgical staples. […]

For assay [2] the test system is unchanged. The experiment in a line: gfap::sNogoR310 transgenic mice, dorsal over-hemisection: axon tracing and serotonin fiber analysis. It is filed as in vivo, mouse. From the text: We cloned the mouse sNogoR310 cDNA (corresponding to amino acids 1-310 of the Nogo receptor-1) into the Nod site of the C-3123 vector. In this vector, sNogoR310 expression is under the control of the glial fibrillary acidic protein (gfap) gene regulatory elements, which allow high level expression with enhanced secretion from reactive astrocytes at site of injury. We digested the resulting vector sequentially with AatII and SfiI and isolated the gfap::sNogoR310 construct on a 3.4 kb fragment. We microinjected this fragment into embryos to generate transgenic mice. We verified by PCR that the transgene had integrated and identified five founder lines. We crossed heterozygous males of the two founder lines with the highest expression levels to female C57BL/6J mice. We confirmed that the GFAP-positive cells express and secrete sNogoR310 in heterozygous transgenic mice by Western blot analysis using antibody raised against Nogo receptor-1.
We deeply anesthetized adult female heterozygous transgenic or littermate WT mice (10-16 weeks of age) and performed a complete laminectomy, fully exposing the dorsal part of spinal cord at T6 and T7 levels. We performed a dorsal over-hemisection at T6 with a 30-gauge needle and a pair of microscissors to completely sever the dorsal and dorsolateral corticospinal tracts (CSTs). We passed a marked needle across the dorsal part of the spinal cord several times to assure that the lesion was at a depth of 1.0 mm. We sutured the muscle layers over the laminectomies and closed the skin on the back with surgical staples. To trace the corticospinal tracts, we made a burr hole overlying cerebral cortex on the right side into the skull 14 days after spinal cord injury. We applied the tracer BDA (MW 10,000, 10% in PBS) (Molecular Probes, Eugene, Oreg.) to 4 injection sites at a depth of 0.7 mm from the cortical surface, Four weeks after injury, the mice were perfused transcardially with PBS, followed by 4% paraformaldehyde.
We investigated the integrity of descending corticospinal tracts (CST) by injecting anterograde tracer biotin dextran amine (BDA) into the right motor cortex as described in Li and Strittmatter, J. Neurosci. 23:4219-27 (2003). In littermate WT mice, the prominent dorsal CST (dCST) is tightly bundled rostral to the lesion, and a few dorsolateral CST fibers are visible ipsilaterally. A small number of BDA-labeled short collateral sprouts project into gray matter, particularly in the ventral cord, but the sprouting is largely confined to the side of the cord contralateral to the tracer injection. However, the sections rostral to dorsal hemisection from injured sNogoR310 transgenic mice indicate a quite different BDA labeling pattern. A high density of BDA-labeled CST fibers are observed outside of prominent dCST in all the transgenic mice from line Tg08 or line Tg01. Ectopic fibers extend throughout the gray matter area, and some fibers reach into lateral and dorsolateral white matter. Several fibers (4-12 sprouts per transverse section) are seen on the opposite side of the spinal cord (ipsilateral to the tracer injection site). Micro densitometric measurement of the collateral sprouts indicates approximately a tenfold increase in sprouting density in sNogoR310 transgenic mice. […]

The subject of the next assay is chick neurons. The experiment in a line: Neurite outgrowth assay using chick neurons. It is filed as cell-based.
The subject of assay [3] is DRG neurons, myelin-mediated inhibition of neurite outgrowth. The experiment in a line: Neurite outgrowth assay, P3-4 rat DRG neurons, myelin mixed with test protein (Example 10). Type of assay: cell-based. Conditions: mixed with CNS myelin, FIGS. 9-11. How it is done: Lab-Tek® culture slides (4 wells) were coated with 0.1 mg/ml poly-D-lysine (Sigma®). CNS myelin alone or mixed with sNogoR310, sNogoR310-Fc fusion protein, mAb 5B10 or control PBS were separately spotted as 3 μl drops. Fluorescent microspheres (Polysciences) were added to the myelin/PBS to allow later identification of the drops (Grandpre et al., Nature 403:439-444 (2000)). Lab-Tek® slides were then rinsed and coated with 10 μg/ml laminin (Gibco™).
Dorsal root ganglions (DRG's) from P3-4 Sprague Dawley rat pups were dissociated with 1 mg/ml collagenase type 1 (Worthington), triturated with fire-polished Pasteur pipettes pre-plated to enrich in neuronal cells and finally plated at 23,000 cells/well on the pre-coated Labtek culture slides. The culture medium was F12 containing 5% heat inactivated donor horse serum, 5% heat inactivated fetal bovine serum and 50 ng/ml mNGF and incubated at 37° C. and 5% CO2 for 6 hours.
Slides were fixed for 20 minutes with 4% paraformaldehyde containing 20% sucrose and stained for the neuronal marker anti beta-III-tubulin (Covance TUJ1) diluted 1:500. As secondary antibody anti-mouse Alexa Fluor® 594 (Molecular Probes) was diluted 1:300 and slides were coverslipped with Gel/Mount™ (Biømeda™). 5× digital images were acquired with OpenLab™ software and analyzed by using the MetaMorph® software for quantification of neurite outgrowth.

For assay [4], the system named is NogoA, NogoB, NogoC, MAG and OM-gp binding to Nogo receptor-1. Description: Soluble Nogo receptors block ligand binding to Nogo receptor-1.
Assay [5] relates to Neuroscreen cells (sub-clone of PC12 cells). Description: Neuro-protection assay, differentiated Neuroscreen cells with or without laminin. Type of assay: cell-based. Conditions: same concentrations, absence of laminin. As to the method: In some experiments, a sub-clone of PC12 cells (Neuroscreen™) was used (Cellomics®). The Neuroscreen™ cells were pre-differentiated for 7 days with 200 ng/ml NGF, detached and replated on 96-well plates pre-coated with poly-D-lysine. In some wells 5 μg/ml laminin was added for 2-3 hours and rinsed before the cells were plated. After 2 days incubation the plates were fixed with 4% paraformaldehyde, stained with rabbit anti-Beta-III-tubulin antibody diluted 1:500 (Covance®) and Hoechst (nuclear stain). The ArrayScan® II was used to quantify neurite outgrowth as in the DRG cells.
(§1) sNogoR344-Fc or rat IgG were added in solution to P6-7 DRG neurons and to differentiated Neuroscreen™ cells at the time of plating.

Another assay has as its system P6 DRG neurons. The experiment in a line: Neuro-protection assay, P6-7 rat DRG neurons with or without laminin. Type of assay: cell-based. How it is done: We also tested the neuro-protective effect of soluble Nogo receptors by performing experiments with cells grown in the presence and absence of laminin. Neuronal cell growth in media without laminin is poor and models neuronal stress conditions.
DRG's were dissected from post-natal day 6-7 rat pups (P6-7), dissociated into single cells and plated on 96-well plates pre-coated with poly-D-lysine as described above. In some wells 2 μg/ml laminin was added for 2-3 hours and rinsed before the cells were plated. After an 18-20 h incubation the plates were fixed with 4% para-formaldehyde, stained with rabbit anti-Beta-III-tubulin antibody diluted 1:500 (Covance®) and anti-HuC/D diluted 1:100 (Molecular Probes), and fluorescent secondary antibodies (Molecular Probes) were added at 1:200 dilution. The ArrayScan® II (Cellomics®) was used to capture 5× digital images and to quantify neurite outgrowth as average neurite outgrowth/neuron per well, by using the Neurite outgrowth application. Nine 5× images from 3 wells/condition were analyzed.
as §1

B1: sNogoR310: soluble Nogo receptor-1 polypeptide, residues 26-310 of SEQ ID NOs: 7 and 9 or 27-310 of SEQ ID NO: 9; mouse form in transgenic mice (protein, listed as Homo sapiens)
chain: PCPGACVCYNEPKVTTSCPQQGLQAVPVGIPAASQRIFLHGNRISHVPAASFRACRNLTILWLHSNVLARIDAAAFTGLALLEQLDLSDNAQLRSVDPATFHGLGRLHTLHLDRCGLQELGPGLFRGLAALQYLYLQDNALQALPDDTFRDLGNLTHLFLHGNRISSVPERAFRGLHSLDRLLLHQNRVAHVHPHAFRDLGRLMTLYLFANNLSALPTEALAPLRALQYLRLNDNPWVCDCRARPLWAWLQKFRGSSSEVPCSLPQRLAGRDLKRLAANDLQGCA
B1: the “sustainable angle on inclined plane” value in assay [1] (days 7-28 after injury vs control) was “significantly greater”. In addition, the BBB scores result in assay [1] (lines Tg08 and Tg01 vs control, 7-28 days) is “significantly higher”. Besides, in assay [1] (post-injury, FIG. 13D), the “inclined grid climbing errors” value is listed as “progressive improvement”. In assay [2] (any level 1-4 mm caudal to the lesion, each transgenic mouse), the “BDA-labeled regenerating fibers coursing in the rostral-caudal axis” value was 5-15. Moreover, the “fibers on the opposite side of the spinal cord (ipsilateral to the tracer injection site)” value in assay [2] (rostral to dorsal hemisection, transgenic mice) is given as 4-12 sprouts per transverse section. Further, in assay [2] (secreted from astrocytes in transgenic mice), the CST sprouting result is listed as “induces CST sprouting”. In addition, in assay [2] (transgenic vs WT group), the “total length of serotonin fibers in the ventral horn of caudal spinal cord” value was “much greater number”. Also, in assay [2] (transgenic vs WT mice), the “increase in collateral sprouting density (micro densitometric measurement)” value is on record as “tenfold”. Moreover, the “protection in similar assay using chick neurons” value in the assay with chick neurons was “protective”. Moreover, the “protection of DRG neurons from myelin-mediated inhibition of neurite outgrowth” value in assay [3] is given as “protected”. The “block of binding of NogoA, NogoB, NogoC, MAG and OM-gp to Nogo receptor-1” value in assay [4] is listed as “block”.

B2: sNogoR344-Fc: fusion protein of residues 26-344 of rat Nogo receptor-1 and hinge and Fc region of rat IgG1 (protein)
chain: PCPGACVCYNEPKVTTSRPQQGLQAVPAGIPASSQRIFLHGNRISYVPAASFQSCRNLTILWLHSNALAGIDAAAFTGLTLLEQLDLSDNAQLRVVDPTTFRGLGHLHTLHLDRCGLQELGPGLFRGLAALQYLYLQDNNLQALPDNTFRDLGNLTHLFLHGNRIPSVPEHAFRGLHSLDRLLLHQNHVARVHPHAFRDLGRLMTLYLFANNLSMLPAEVLVPLRSLQYLRLNDNPWVCDCRARPLWAWLQKFRGSSSGVPSNLPQRLAGRDLKRLATSDLEGCAVASGPFRPFQTNQLTDEELLGLPKCCQPDAADKA
modifications: left off: a dimerising Fc or GST
notes: fusion protein of residues 26-344 of rat Nogo receptor-1 and hinge and Fc region of rat IgG1
Turning to B2, the neuro-protective effect result is “seen” in assay [5]; “observed” in the assay with P6 DRG neurons (1 μM and 10 μM, absence of laminin). The “quantification of neurite outgrowth” value in the assay with P6 DRG neurons (absence of laminin) is listed as “dose-dependent increase”. The “effect on DRG neurons growing on a laminin substrate” value in the assay on P6 DRG neurons (same concentrations, laminin substrate) is recorded as “did not produce any unusual effect”.

Values taken from patent publication US9228015B2, “Nogo receptor antagonists and methods of increasing neurite outgrowth” (Biogen Idec MA Inc., priority 2006, dated 2016).
